± gives the standard deviation.

Results on 72 sequences are retold here after the supplement of paper PMC10567573.

The data set can be described thus: protein stability index of a GFP-peptide fusion (GPS, HEK-293T) (PSI 1-6); higher = more stable.
Setting [1] is: treatment: DMSO, c terminus: a fixed tail appended.
Where [2] appears, read: treatment: MLN4924 1 uM, 8 h, c terminus: a fixed tail appended.
The mark [3] stands for this setting: treatment: DMSO, c terminus: native.
[4] abbreviates: treatment: MLN4924 1 uM, 8 h, c terminus: native.
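Also: 24-mer peptide tiles fused after GFP, lentivirally expressed, FACS-sorted into six equal bins by GFP/DsRed ratio, decoded by Illumina sequencing, PSI is the read-weighted mean bin number.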

YKIVTAREWRCCPGHSGVSCEEVA [EMID1]: the protein stability index under setting [1] is 2.49 ± 0.32 and the protein stability index under setting [2] was 2.39 ± 0.41.
For HSKLTDREKTNICYLSFPDSNSGC [DENND6A], the protein stability index turned out to be 3.32 ± 0.26 under setting [1] and 3.39 ± 0.3 under setting [2].
As for QLEEKLEIANEDRKHALERFEQEA [CCDC89], the protein stability index amounted to 5.4 ± 0.19 under setting [1] and 5.4 ± 0.12 under setting [2].
For the sequence PVLQSRTGLVYDQNMMNHCNLWDS [HDAC6], the protein stability index stood at 2.75 ± 0.41 under setting [1] and 2.93 ± 0.33 under setting [2].
On the same counts, the results for GVRCNTPAMGLQKKLRLNGGRNPY [LOXL2] are 2.75 ± 0.12 and 2.95 ± 0.34.
In the case of EVWGNALLRPPVAAFVRAQADLLA [DNAAF3], the protein stability index worked out at 2.39 ± 0.31 under setting [1] and 2.02 ± 0.37 under setting [2].
In the case of KAGSSEWLAVDGLVSPSNNSKEDA [ATF4], the protein stability index runs as follows: under setting [1], 5.13 ± 0.19; under setting [2], 5.14 ± 0.25.
Take AKVKGHRSQKHKERIRLLRQKREA [C18orf25]: the protein stability index runs as follows: under setting [1], 4.07 ± 0.57; under setting [2], 4.38 ± 0.16.
As to STKTPAPCSEFMEPSSDPSLLGEP [SPAG8], the protein stability index stood at 5.24 ± 0.44 under setting [1] and 5.25 ± 0.081 under setting [2].
Consider SDGVYAIVATLLILDICEDNVPDP [TMEM175], for which the protein stability index worked out at 2.86 ± 0.39 under setting [1] and 2.84 ± 0.51 under setting [2].
For the sequence MSVDPACPQSLPCFEASDCKESSP [NANOGP8], the protein stability index is 5.44 ± 0.23 under setting [1] and 5.41 ± 0.33 under setting [2].
For SGKVSSSSSSLGNKLQTLSPSHKG [ZC2HC1A] the same measures were 4.31 ± 0.14 and 4.26 ± 0.091.
Turning to MLWEHNSTIVVMLTKLREMGREKC [PTPRD], the protein stability index under setting [1] stood at 2.33 ± 0.55 and the protein stability index under setting [2] is 2.15 ± 0.2.
For DDDKYKITLKYPHYFPVMKKCCIP [NLN] the same measures were 2.9 ± 0.23 and 2.49 ± 0.47.
As to ITTRVNSEQEHFLIVPFGLLYSEV [ADD1], the protein stability index by setting is: under setting [1], 2.74 ± 0.79; under setting [2], 2.61 ± 0.81.
In turn, DRKSVKFVETRLRDLPDTPRRFTF [TRIM39] had a protein stability index under setting [1] of 2.98 ± 0.12 and a protein stability index under setting [2] of 3.08 ± 0.29.
For RYGQLIEINSHSLFSKWFSESGKL [TRIP13] the same measures were 2.27 ± 0.49 and 2.49 ± 0.83.
For the sequence EAECEKSSATTYFWYREALDISDS [SLC6A17], the protein stability index is, setting by setting: under setting [1], 3.94 ± 0.36; under setting [2], 3.83 ± 0.29.
Regarding KLWSFFIYLLRRQIRTVIQYQTVR [CTDNEP1], the protein stability index under setting [1] worked out at 2.99 ± 0.3 and the protein stability index under setting [2] was 2.94 ± 0.37.
Regarding QMASQSSASHYKLQVIKALKSSGL [M1AP], the protein stability index is 2.82 ± 0.26 under setting [1] and 2.77 ± 0.21 under setting [2].
For QALAQAIKEAKEQHPDMSVTKVVV [EPB41L3] the same measures were 2.44 ± 0.34 and 2.53 ± 0.27.
As to GVEIDEINVYGNTALHIACYNGQD [ANKRD44], the protein stability index under setting [1] worked out at 3.58 ± 0.19 and the protein stability index under setting [2] is 3.55 ± 0.33.
TILNVRDPTGASIALFTARLHHPH [PTPN9] came in with a protein stability index under setting [1] of 2.5 ± 0.21 and a protein stability index under setting [2] of 1.89 ± 0.18.
Take LPPQYVDDVISRIDRMFPEMSIHL [MED27]: the protein stability index worked out at 2.19 ± 0.087 under setting [1] and 2.29 ± 0.29 under setting [2].
ITAGAHRLWSHRSYKARLPLRLFL [SCD]: the protein stability index stood at 2.6 ± 0.63 under setting [1] and 2.47 ± 0.64 under setting [2].
On the same counts, the results for PPLSGRSTPKLTSRSAAQDLDRMG [PPFIA4] are 4.49 ± 0.19 and 4.62 ± 0.096.
On the same counts, the results for LVGDSDVGKGEILASLQDGAAESP [RAB40B] are 5.18 ± 0.17 and 5.36 ± 0.32.
For CETCVGSWSIQMRQHHHQSSFPGS, the protein stability index was found to be 2.37 ± 0.3 under setting [1] and 2.34 ± 0.44 under setting [2].
In the case of TIEQSLLEVMEEEELANLRASQRE [RSPH3], the protein stability index was 4.68 ± 0.24 under setting [1] and 4.88 ± 0.18 under setting [2].
Consider LGYLLDKETLRLHPDIFLPSEICD [ZER1], for which the protein stability index runs as follows: under setting [1], 2.4 ± 0.21; under setting [2], 2.46 ± 0.17.
Take VNPQDGTNTLTRIAENGVSERDSE [EHMT1]: the protein stability index by setting is: under setting [1], 5.56 ± 0.22; under setting [2], 5.51 ± 0.11.
As to GREVELKPYIAAHFDVLPTEFTLG [PTPRD], the protein stability index under setting [1] amounted to 3.01 ± 0.37 and the protein stability index under setting [2] was 3.
As to ARQATNLKVNFFFERIMKYERLAR [FBXO39], the protein stability index runs as follows: under setting [1], 2.75 ± 0.82; under setting [2], 2.41 ± 0.32.
Consider KEASRHAIMRSPQMVSAIVRTMQN [CTNNB1], for which the protein stability index by setting is: under setting [1], 3.15 ± 0.32; under setting [2], 3.3 ± 0.35.
For the sequence HDYIVRSGERWLERYEIDSLIGKG [DYRK1B], the protein stability index under setting [1] was 2.95 ± 0.49 and the protein stability index under setting [2] worked out at 3.11 ± 0.38.
Take AGGFQQRQGLKYCLPLTFCIHTGL [FBXO3]: the protein stability index under setting [1] is 2.58 ± 0.57 and the protein stability index under setting [2] stood at 2.4 ± 0.24.
On to AEGVVLSDSPDAADSTSFDVQLGD [PPTC7], for which the protein stability index by setting is: under setting [1], 5.4 ± 0.59; under setting [2], 5.64 ± 0.15.
Regarding PVIIAAVGTRQNEELPCTCPLCTS [RHOBTB3], the protein stability index under setting [1] came to 3.76 ± 0.37 and the protein stability index under setting [2] was 3.92 ± 0.35.
With LWAGSKGKEFGYFPRDAVQIEEVF [MIA2], the protein stability index reads like this: under setting [1], 2.66 ± 0.51; under setting [2], 2.77 ± 0.46.
As to GAGHCSASPGPAAPTARMPGRLRG, the protein stability index is, setting by setting: under setting [1], 4.82 ± 0.34; under setting [2], 4.78 ± 0.25.
In the case of AGAARVARWRRLRLQQLRRLRGLL [FBXO33], the protein stability index reads like this: under setting [1], 3.13 ± 0.4; under setting [2], 3.74 ± 0.43.
Turning to LVVPNKGYSSLDQSPDEKPLVALD [FAM219A], the protein stability index is, setting by setting: under setting [1], 4.45 ± 0.17; under setting [2], 4.42 ± 0.25.
Regarding QVSHDFLETRFKIQQLLEPQQYMA [FBXO34], the protein stability index by setting is: under setting [1], 3.85 ± 0.49; under setting [2], 4.15 ± 0.29.
On the same counts, the results for FHRSQTLSYRNGYAIVRRPTVGIG [EFHC1] are 2.44 ± 0.39 and 2.54 ± 0.22.
Consider TSSKPTALPSASSAYFPGQLPNS [SASS6], for which the protein stability index reads like this: under setting [3], 4.42 ± 0.41; under setting [4], 4.4 ± 0.26.
For the sequence SPVSRNRLAQVKRKILVLDLDETL [CTDNEP1], the protein stability index runs as follows: under setting [1], 2.6 ± 0.35; under setting [2], 2.77 ± 0.36.
On the same counts, the results for FSSQKLKCLSMFPHYICTLKQPHL [PNLIPRP1] are 2.66 ± 0.57 and 2.17 ± 0.35.
For the sequence GFQPPSPSLRPRPASSISLPIGHL [DMRTC1], the protein stability index is, setting by setting: under setting [1], 3.43 ± 0.21; under setting [2], 3.44 ± 0.19.
As for QEILHRDLKLGNFFINEAMELKVG [PLK2], the protein stability index is, setting by setting: under setting [1], 2.58 ± 0.25; under setting [2], 2.76 ± 0.31.
For ISQHGDPLLSNTFTETNNHWPQGP [EMID1], the protein stability index came to 3.87 ± 0.29 under setting [1] and 4.08 ± 0.16 under setting [2].
For the sequence PERSYVFNGDFVDRGKDSVEILMI [PPEF2], the protein stability index runs as follows: under setting [1], 2 ± 0.38; under setting [2], 2.23 ± 0.31.
On the same counts, the results for SKDLYLISQMDSDQFIPIWTVANM [LARP4] are 2.51 ± 0.6 and 1.92 ± 0.36.
Take TPVSNSLLPEKAFSDIPSPYLRGT [GFOD1]: the protein stability index under setting [1] came to 4.03 ± 0.28 and the protein stability index under setting [2] is 3.98 ± 0.1.
For the sequence EKRERALEEVERAILEMKWKVRAE [ZBED2], the protein stability index by setting is: under setting [1], 3.77 ± 0.27; under setting [2], 3.74 ± 0.53.
For the sequence ATFLVTFGNSEKPETMTCRLSNNQ [ZFYVE21], the protein stability index reads like this: under setting [1], 2.39 ± 0.15; under setting [2], 2.24 ± 0.19.
IIVSIVHSVFEFLAFKNDIQFWNS [CLPTM1]: the protein stability index by setting is: under setting [1], 3.5 ± 0.83; under setting [2], 2.75 ± 0.65.
With KVNQNQAKRCTVIGGSGFLGQHMV [NSDHL], the protein stability index amounted to 2.22 ± 0.21 under setting [1] and 2.07 ± 0.2 under setting [2].
On to LEVNRLMGKLLQQPNTYADFEFLA [PKD2L1], for which the protein stability index reads like this: under setting [1], 2.17 ± 0.37; under setting [2], 2.48 ± 0.14.
Turning to QRPLVSVTVSDASWVSELLWSLFV [AUP1], the protein stability index under setting [1] was found to be 2.36 ± 0.2 and the protein stability index under setting [2] amounted to 2.14 ± 0.2.
For the sequence GTWDDAFATFCGGLAANGALQRLD [LRRC45], the protein stability index runs as follows: under setting [1], 3.2 ± 0.052; under setting [2], 3.12 ± 0.28.
Take AEYPANGSGADRIYDLNIPAFVKF [NCK2]: the protein stability index turned out to be 2.88 ± 0.33 under setting [1] and 2.7 ± 0.29 under setting [2].
DDDAQILPSPVQACSEDSLFLRCS [DRICH1]: the protein stability index under setting [1] stood at 4.17 ± 0.16 and the protein stability index under setting [2] was 4.02 ± 0.37.
On to SLGSESEEEEEFYDADEETQMIK [SLC22A15], for which the protein stability index turned out to be 5.01 ± 0.35 under setting [3] and 4.92 ± 0.37 under setting [4].
In the case of AKPNMIISVNGDVITIKSESTFKN [FABP4], the protein stability index stood at 3 ± 0.56 under setting [1] and 3.03 ± 0.66 under setting [2].
For ANRWSFEGMDRWIKKIEEHAPGVP [RAB40A], the protein stability index reads like this: under setting [1], 3.33 ± 0.26; under setting [2], 3.4 ± 0.33.
On the same counts, the results for GSSSDNRTYRYSNRYCGGPGPPIT [DYRK1B] are 2.57 ± 0.42 and 2.75 ± 0.19.
With GAQELLEFTIRDLQRLGELQSELA [INTS4], the protein stability index was 2.54 ± 0.36 under setting [1] and 2.79 ± 0.29 under setting [2].
Take DSYSSTQHVPEELDLSSSSQMSPL [ATF6]: the protein stability index is, setting by setting: under setting [1], 5.29 ± 0.12; under setting [2], 5.28 ± 0.073.
With DAAAILLDEQNKRPCRKFLLTGQC [ZMAT5], the protein stability index runs as follows: under setting [1], 2.98 ± 0.45; under setting [2], 3 ± 0.59.
Regarding WAVVTMTTVGYGDMKPITVGGKIV [KCNA4], the protein stability index came out at 2.84 ± 0.38 under setting [1] and 2.72 ± 0.55 under setting [2].
In the case of AIGALLVCYHYYADWFMSLGVGLL [TMEM40], the protein stability index was determined as 3.087 ± 0.018 under setting [1] and 2.86 ± 0.62 under setting [2].
For YYPRVQHYRELLDSLPMDAYTHGC [GDAP1] the same measures were 2.21 ± 0.17 and 2.32 ± 0.23.
